The term Kd denotes the free concentration of one partner at which half of the binding sites on the other are occupied at equilibrium, for simple one-to-one binding. Low values mean tighter binding, high ones weaker binding.

This is an account of results in patent US20230242601A1 (published 2023).

This assay addresses FABP3 fused with a His-tag at the N-terminus. Kind of assay: QCM.

Sequence of FABP3 fused with a His-tag at the N-terminus (chain, as listed by the source): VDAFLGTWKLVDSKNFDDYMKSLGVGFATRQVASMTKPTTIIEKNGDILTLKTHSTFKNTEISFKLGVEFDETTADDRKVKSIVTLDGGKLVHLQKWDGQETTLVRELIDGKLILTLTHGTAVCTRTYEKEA

EEGYQDWEPEA [SynP130-140 Y136W]: the Kd was 6.3 nM. In the case of EEGFQDWEPEA [SynP130-140 Y133F/Y136W], binding was characterised by a dissociation constant (Kd) of 6.1 nM. The same measure for EEGYQDYEPEA [SynP130-140 peptide]: 6.1 nM; for EEGFQDFEPEA [SynP130-140 Y133F/Y136F]: 2.1 nM. EEGWQDWEPEA [SynP130-140 Y133W/Y136W]: the affinity, expressed as Kd, was 6.2 nM. Then EEGYQDFEPEA [SynP130-140 Y136F], with 7.7 nM.
